Results taken from patent US20240124553A1.

Assays:
Assay in all cases: flow cytometry, transfected 293T cells
[1] = biological target: CHIKV E2-E1 envelope glycoproteins (strain S27), E2 mutant A33S (chikungunya virus strain S27) (UniProt Q8JUX5)
[2] = biological target: CHIKV E2-E1 envelope glycoproteins (strain S27), E2 mutant A76S (chikungunya virus strain S27) (UniProt Q8JUX5)
[3] = biological target: CHIKV E2-E1 envelope glycoproteins (strain S27), E2 mutant A81S (chikungunya virus strain S27) (UniProt Q8JUX5)
[4] = biological target: CHIKV E2-E1 envelope glycoproteins (strain S27), E2 mutant D117A (chikungunya virus strain S27) (UniProt Q8JUX5)
[5] = biological target: CHIKV E2-E1 envelope glycoproteins (strain S27), E2 mutant D63A (chikungunya virus strain S27) (UniProt Q8JUX5)
[6] = biological target: CHIKV E2-E1 envelope glycoproteins (strain S27), E2 mutant E35A (chikungunya virus strain S27) (UniProt Q8JUX5)
[7] = biological target: CHIKV E2-E1 envelope glycoproteins (strain S27), E2 mutant G79A (chikungunya virus strain S27) (UniProt Q8JUX5)
[8] = biological target: CHIKV E2-E1 envelope glycoproteins (strain S27), E2 mutant H127A (chikungunya virus strain S27) (UniProt Q8JUX5)
[9] = biological target: CHIKV E2-E1 envelope glycoproteins (strain S27), E2 mutant H131A (chikungunya virus strain S27) (UniProt Q8JUX5)
[10] = biological target: CHIKV E2-E1 envelope glycoproteins (strain S27), E2 mutant H99A (chikungunya virus strain S27) (UniProt Q8JUX5)
[11] = biological target: CHIKV E2-E1 envelope glycoproteins (strain S27), E2 mutant I121A (chikungunya virus strain S27) (UniProt Q8JUX5)
[12] = biological target: CHIKV E2-E1 envelope glycoproteins (strain S27), E2 mutant I56A (chikungunya virus strain S27) (UniProt Q8JUX5)
[13] = biological target: CHIKV E2-E1 envelope glycoproteins (strain S27), E2 mutant I74A (chikungunya virus strain S27) (UniProt Q8JUX5)
[14] = biological target: CHIKV E2-E1 envelope glycoproteins (strain S27), E2 mutant I93A (chikungunya virus strain S27) (UniProt Q8JUX5)
[15] = biological target: CHIKV E2-E1 envelope glycoproteins (strain S27), E2 mutant K107A (chikungunya virus strain S27) (UniProt Q8JUX5)
[16] = biological target: CHIKV E2-E1 envelope glycoproteins (strain S27), E2 mutant K66A (chikungunya virus strain S27) (UniProt Q8JUX5)
[17] = biological target: CHIKV E2-E1 envelope glycoproteins (strain S27), E2 mutant L111A (chikungunya virus strain S27) (UniProt Q8JUX5)
[18] = biological target: CHIKV E2-E1 envelope glycoproteins (strain S27), E2 mutant L34A (chikungunya virus strain S27) (UniProt Q8JUX5)
[19] = biological target: CHIKV E2-E1 envelope glycoproteins (strain S27), E2 mutant L52A (chikungunya virus strain S27) (UniProt Q8JUX5)
[20] = biological target: CHIKV E2-E1 envelope glycoproteins (strain S27), E2 mutant M97A (chikungunya virus strain S27) (UniProt Q8JUX5)
[21] = biological target: CHIKV E2-E1 envelope glycoproteins (strain S27), E2 mutant N72A (chikungunya virus strain S27) (UniProt Q8JUX5)
[22] = biological target: CHIKV E2-E1 envelope glycoproteins (strain S27), E2 mutant P133A (chikungunya virus strain S27) (UniProt Q8JUX5)
[23] = biological target: CHIKV E2-E1 envelope glycoproteins (strain S27), E2 mutant P90A (chikungunya virus strain S27) (UniProt Q8JUX5)
[24] = biological target: CHIKV E2-E1 envelope glycoproteins (strain S27), E2 mutant R104A (chikungunya virus strain S27) (UniProt Q8JUX5)
[25] = biological target: CHIKV E2-E1 envelope glycoproteins (strain S27), E2 mutant R68A (chikungunya virus strain S27) (UniProt Q8JUX5)
[26] = biological target: CHIKV E2-E1 envelope glycoproteins (strain S27), E2 mutant R80A (chikungunya virus strain S27) (UniProt Q8JUX5)
[27] = biological target: CHIKV E2-E1 envelope glycoproteins (strain S27), E2 mutant S51A (chikungunya virus strain S27) (UniProt Q8JUX5)
[28] = biological target: CHIKV E2-E1 envelope glycoproteins (strain S27), E2 mutant S88A (chikungunya virus strain S27) (UniProt Q8JUX5)
[29] = biological target: CHIKV E2-E1 envelope glycoproteins (strain S27), E2 mutant T112A (chikungunya virus strain S27) (UniProt Q8JUX5)
[30] = biological target: CHIKV E2-E1 envelope glycoproteins (strain S27), E2 mutant T126A (chikungunya virus strain S27) (UniProt Q8JUX5)
[31] = biological target: CHIKV E2-E1 envelope glycoproteins (strain S27), E2 mutant T87A (chikungunya virus strain S27) (UniProt Q8JUX5)
[32] = biological target: CHIKV E2-E1 envelope glycoproteins (strain S27), E2 mutant T94A (chikungunya virus strain S27) (UniProt Q8JUX5)
[33] = biological target: CHIKV E2-E1 envelope glycoproteins (strain S27), E2 mutant Y69A (chikungunya virus strain S27) (UniProt Q8JUX5)

| Substance | Binding Reactivity (% WT) [1] | Binding Reactivity (% WT) [3] | Binding Reactivity (% WT) [4] | Binding Reactivity (% WT) [5] | Binding Reactivity (% WT) [6] | Binding Reactivity (% WT) [7] | Binding Reactivity (% WT) [8] | Binding Reactivity (% WT) [9] | Binding Reactivity (% WT) [10] | Binding Reactivity (% WT) [11] | Binding Reactivity (% WT) [12] | Binding Reactivity (% WT) [13] | Binding Reactivity (% WT) [14] | Binding Reactivity (% WT) [15] | Binding Reactivity (% WT) [17] | Binding Reactivity (% WT) [18] | Binding Reactivity (% WT) [19] | Binding Reactivity (% WT) [20] | Binding Reactivity (% WT) [21] | Binding Reactivity (% WT) [22] | other results |
| --- | --- | --- | --- | --- | --- | --- | --- | --- | --- | --- | --- | --- | --- | --- | --- | --- | --- | --- | --- | --- | --- |
| CHIKV mAb C9 (antibody) | 86 % WT | 86.6 % WT | 74.4 % WT | 71.8 % WT | 22.2 % WT | 81.4 % WT | 92.4 % WT | 24.4 % WT | 57.4 % WT | 96.7 % WT | 114 % WT | 108 % WT | 10.4 % WT | 95.6 % WT | 23.2 % WT | 34.4 % WT | 84.7 % WT | 76.3 % WT | 112 % WT | 87.2 % WT | Binding Reactivity (% WT) [2]: 107 % WT; Binding Reactivity (% WT) [16]: 85.7 % WT; Binding Reactivity (% WT) [23]: 100 % WT; Binding Reactivity (% WT) [24]: 91.6 % WT; Binding Reactivity (% WT) [25]: 64.8 % WT; Binding Reactivity (% WT) [26]: 68.8 % WT; Binding Reactivity (% WT) [27]: 85.3 % WT; Binding Reactivity (% WT) [28]: 122 % WT; Binding Reactivity (% WT) [29]: 50.5 % WT; Binding Reactivity (% WT) [30]: 106 % WT; Binding Reactivity (% WT) [31]: 20.7 % WT; Binding Reactivity (% WT) [32]: 116 % WT; Binding Reactivity (% WT) [33]: 55.3 % WT |
| CHIKV mAb CHKV-88 (antibody) | 123 % WT | 82.3 % WT | 103 % WT | 85 % WT | 55.9 % WT | 121 % WT | 91 % WT | 56.3 % WT | 85.6 % WT | 111 % WT | 116 % WT | 106 % WT | 29.1 % WT | 99.2 % WT | 50.9 % WT | 58.3 % WT | 100 % WT | 85.1 % WT | 109 % WT | 92.3 % WT | Binding Reactivity (% WT) [2]: 122 % WT; Binding Reactivity (% WT) [16]: 103 % WT; Binding Reactivity (% WT) [23]: 119 % WT; Binding Reactivity (% WT) [24]: 76 % WT; Binding Reactivity (% WT) [25]: 74.7 % WT; Binding Reactivity (% WT) [26]: 128 % WT; Binding Reactivity (% WT) [27]: 96.9 % WT; Binding Reactivity (% WT) [28]: 111 % WT; Binding Reactivity (% WT) [29]: 71.6 % WT; Binding Reactivity (% WT) [30]: 95.1 % WT; Binding Reactivity (% WT) [31]: 52.9 % WT; Binding Reactivity (% WT) [32]: 109 % WT; Binding Reactivity (% WT) [33]: 95.4 % WT |
| CHIKV mAb IM-CKV063 (antibody) | 99.4 % WT | 93 % WT | 74.2 % WT | 65.8 % WT | 19.1 % WT | 86.9 % WT | 96.1 % WT | 16.5 % WT | 63.8 % WT | 109 % WT | 111 % WT | 106 % WT | 8.4 % WT | 86.8 % WT | 20.3 % WT | 29.4 % WT | 107 % WT | 69.9 % WT | 114 % WT | 73.9 % WT | Binding Reactivity (% WT) [2]: 107 % WT; Binding Reactivity (% WT) [16]: 84.2 % WT; Binding Reactivity (% WT) [23]: 95.3 % WT; Binding Reactivity (% WT) [24]: 75.7 % WT; Binding Reactivity (% WT) [25]: 67.1 % WT; Binding Reactivity (% WT) [26]: 86.3 % WT; Binding Reactivity (% WT) [27]: 89.8 % WT; Binding Reactivity (% WT) [28]: 89.5 % WT; Binding Reactivity (% WT) [29]: 43.1 % WT; Binding Reactivity (% WT) [30]: 83.4 % WT; Binding Reactivity (% WT) [31]: 18.8 % WT; Binding Reactivity (% WT) [32]: 95.5 % WT; Binding Reactivity (% WT) [33]: 60.7 % WT |
| CHIKV mAb IM-CKV065 (antibody) | 123 % WT | 96.6 % WT | 70.9 % WT | 64.8 % WT | 11.7 % WT | 98.5 % WT | 81.9 % WT | 3.2 % WT | 27.5 % WT | 111 % WT | 102 % WT | 0.3 % WT | -0.9 % WT | 95.2 % WT | 6.6 % WT | 16.3 % WT | 142 % WT | 65.7 % WT | 103 % WT | 66.6 % WT | Binding Reactivity (% WT) [2]: 125 % WT; Binding Reactivity (% WT) [16]: 99.6 % WT; Binding Reactivity (% WT) [23]: 108 % WT; Binding Reactivity (% WT) [24]: 66.9 % WT; Binding Reactivity (% WT) [25]: 88.1 % WT; Binding Reactivity (% WT) [26]: 125 % WT; Binding Reactivity (% WT) [27]: 85.6 % WT; Binding Reactivity (% WT) [28]: 101 % WT; Binding Reactivity (% WT) [29]: 16.2 % WT; Binding Reactivity (% WT) [30]: 67.2 % WT; Binding Reactivity (% WT) [31]: 7.6 % WT; Binding Reactivity (% WT) [32]: 102 % WT; Binding Reactivity (% WT) [33]: 46.3 % WT |
| Mxra8-Fc (mouse Mxra8 extracellular domain fused to mouse IgG2b Fc) (Fc fusion) | 85.3 % WT | 85.2 % WT | -0.3 % WT | 85 % WT | 11 % WT | 94.6 % WT | 78 % WT | 15.7 % WT | 58.1 % WT | 12.1 % WT | 91.7 % WT | 44.8 % WT | 14.6 % WT | 84.6 % WT | 25.7 % WT | 28.3 % WT | 86.8 % WT | 95.1 % WT | 128 % WT | 81.3 % WT | Binding Reactivity (% WT) [23]: 114 % WT; Binding Reactivity (% WT) [25]: 66.1 % WT; Binding Reactivity (% WT) [26]: 131 % WT; Binding Reactivity (% WT) [27]: 99.2 % WT; Binding Reactivity (% WT) [28]: 94 % WT; Binding Reactivity (% WT) [29]: 44.2 % WT; Binding Reactivity (% WT) [30]: 76 % WT; Binding Reactivity (% WT) [31]: 23.5 % WT; Binding Reactivity (% WT) [32]: 99.7 % WT; Binding Reactivity (% WT) [33]: 106 % WT |
